Assay results taken from the supplement of paper PMC9732359.
± gives the uncertainty stated by the source.

Assay: protein stability index of a GFP-peptide fusion (yeast GPS) (PSI 1-4); higher = more stable; sorted into four equal gates, so the index is relative within each strain
Outline: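 Plasmids in a pooled yeast library fused tiled 17-residue yeast protein peptides downstream of GFP and also expressed Cherry. Mid-log cultures grown without leucine were sorted into four equal gates by GFP/Cherry fluorescence ratio. Each gate's plasmids were PCR-amplified and Illumina-sequenced, and reads were matched to strains by barcodes. The protein stability index is derived by multiplying each gate's read frequency by its gate number and summing the results.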

Sequence	protein stability index (san1∆)	protein stability index (doa10∆)	protein stability index (pdr5∆)	protein stability index (ubr1∆)
KDSTAGKKVFETQYFWK [YJR042W/NUP85]	3.03 ± 0.21			
SIDDHPYNLNLFPNELY [RPC31]	2.69 ± 0.088	2.14 ± 0.048	2.53 ± 0.061	2.68 ± 0.064
RRRLLGPAAAKPMAFSN [MTR3]	3.23 ± 0.057	3.06 ± 0.071	3.17 ± 0.055	3.21 ± 0.038
EAIDGNGEIKGENIDAD [SNF2]	3.48 ± 0.078	3.53 ± 0.14	3.4 ± 0.071	3.25 ± 0.12
IAKLVAVLNVSPVYDVD [NUT1]	1.7 ± 0.084	1.84 ± 0.056	2.05 ± 0.046	1.75 ± 0.043
AILRQQQQMANNNGNPG [GAL11]	2.7 ± 0.12	2.77 ± 0.12	3.19 ± 0.13	3.17 ± 0.05
LASPEVKVHMDSETSDP [DIS3]	3.03 ± 0.071	3.09 ± 0.082	3.38 ± 0.071	3.12 ± 0.051
GVKDCQEGLITTTMLQL [SSN2]	2.74 ± 0.079	2.46 ± 0.083	2.5 ± 0.1	2.6 ± 0.052
VDPFDSDEEESVLDEQE [SNU114]	3.39 ± 0.15	3.36 ± 0.095	3.5 ± 0.12	3.36 ± 0.073
KDAISFIKEIHKSIELI [YCS4]	3.17 ± 0.055	2 ± 0.066	2.81 ± 0.065	2.69 ± 0.037
EEGEFIIDLYSLPEGLL [TAF14]	3.57 ± 0.058	3.4 ± 0.088	3.54 ± 0.085	3.52 ± 0.063
ITKFALFAESHDVLQKL [YML103C/NUP188]	2.02 ± 0.13	2.34 ± 0.1	1.78 ± 0.2	2.45 ± 0.075
TEEELQAAVPDNAEDDS [BRN1]	3.05 ± 0.083	3.2 ± 0.094	3.14 ± 0.089	3.02 ± 0.055
GVSLLALWKEKKEKPRS [RPS23A]	2.21 ± 0.1	3.12 ± 0.089	2.29 ± 0.11	2.94 ± 0.075
RESLIMLLEEQLEYKRG [MED7]	2.42 ± 0.091	2.51 ± 0.08	2.77 ± 0.071	2.75 ± 0.057
LISSSQDMQLKIWSVKD [RPN14]	2.56 ± 0.17	2.7 ± 0.12	2.73 ± 0.22	2.59 ± 0.1
EVYDFTHAVGNNCEDFV [FAS1]	2.99 ± 0.071	3.15 ± 0.12	3 ± 0.18	3.05 ± 0.086
DIGKEMSLRHFGHLMHY [RPN1]	1.23 ± 0.074	1.26 ± 0.049	1.25 ± 0.041	1.08 ± 0.037
SANERLFGNRPSMMAPL [YML031W/NDC1]	2.62 ± 0.12	2.96 ± 0.21	2.63 ± 0.13	3.03 ± 0.089
TSGKVELPKKLLNLPPF [SRB8]	2.67 ± 0.26	2.57 ± 0.27	3.1 ± 0.25	2.55 ± 0.14
KTSNIESVPIYSIDEFF [BRR2]	2.34 ± 0.045	2.56 ± 0.062	2.58 ± 0.067	2.13 ± 0.083
KKPSPQTIPIQIYGFEG [YGR119C/NUP57]	2.49 ± 0.15	2.61 ± 0.26	3.06 ± 0.22	3.08 ± 0.17
ETLAYNSLKETLQDFHL [SNF2]	2.61 ± 0.055	2.88 ± 0.054	3.04 ± 0.058	2.7 ± 0.042
ESMAYTAFQTQRTAQDR [YML031W/NDC1]	3.23 ± 0.067	3.27 ± 0.076	3.27 ± 0.099	2.85 ± 0.16
ERLKQLTPNEIKELEHL [SWP82]	2.73 ± 0.049	2.83 ± 0.064	2.84 ± 0.083	2.7 ± 0.054
VLEYLAAEILELAGNAA [HTA1]	2.54 ± 0.081	2.85 ± 0.1	2.44 ± 0.1	2.84 ± 0.1
KGYVFKISGGNDKQGFP [RPS6A]	2.99 ± 0.052	2.62 ± 0.068	2.89 ± 0.071	3 ± 0.054

Sequence	protein stability index (san1∆)	protein stability index (doa10∆)	protein stability index (pdr5∆)	protein stability index (ubr1∆)
KKAAEEAGVTDVKVSIS [FAS2]	2.23 ± 0.24	1.44 ± 0.09	1.66 ± 0.08	1.18 ± 0.1
TAGNWVASQTVKKVIEI [PRE2]	2.77 ± 0.069	3.18 ± 0.12	3.35 ± 0.084	3.23 ± 0.081
SYRNGMASYMLNSFAFE [YJR042W/NUP85]	2.6 ± 0.1	2.29 ± 0.09	2.45 ± 0.11	3.01 ± 0.084
AVEKTLALGCHFQDQKN [POP7]	2.87 ± 0.078	2.42 ± 0.12	3.12 ± 0.11	2.78 ± 0.096
ISYKKGAASNRTKFVRS [RPL36A]	3.13 ± 0.11	3.06 ± 0.1	3.2 ± 0.1	3.26 ± 0.22
FGQDVSPMINSTSSGKV [SNM1]	2.74 ± 0.067	2.81 ± 0.1	3.32 ± 0.077	3.02 ± 0.057
YPEVVTPYNIDRLTQLV [RPO21]		2.56 ± 0.2		
TGESEESSSEDDYEDQD [IRR1]		3.5 ± 0.17	3.34 ± 0.16	3.57 ± 0.26
MKWSAIPFQTLYRSIES [YJL039C/NUP192]	1.7 ± 0.11	1.53 ± 0.046	1.91 ± 0.058	1.91 ± 0.031
LRASFNKLSSILQNEHD [SRB4]	1.52 ± 0.14	2.1 ± 0.1	2.22 ± 0.069	2.49 ± 0.053
LSEIESLDEILLPANLL [SRP68]	3.02 ± 0.042	3.14 ± 0.053	3.08 ± 0.052	3.037 ± 0.027
NIKTIAETLAEELINAA [RPS5]	2.85 ± 0.057	2.29 ± 0.067	2.87 ± 0.073	2.46 ± 0.048
LSSETGIKLALDPNLIT [SRB4]	2.92 ± 0.056	2.6 ± 0.052	3 ± 0.054	2.51 ± 0.034
MHALKNRSEQNGQEQQG [RGR1]			3.06 ± 0.21	3.06 ± 0.21
ILNELEVFIGRVKDQDG [YJR042W/NUP85]	3 ± 0.12	3.06 ± 0.14	3.05 ± 0.18	2.59 ± 0.059
NYHPMNIDETSDEVSRG [SMC4]	3.23 ± 0.054	3.17 ± 0.082	3.17 ± 0.064	3.14 ± 0.041
RSLATAVATPKAEVTQL [COR1]	2.98 ± 0.092	2.99 ± 0.1	3.09 ± 0.13	2.89 ± 0.042
MAIEIINDIRDDDIEKQ [YCG1]	3.19 ± 0.11		3.07 ± 0.16	3.27 ± 0.14
NSASNNGNLTSNQLISN [SWI1]	2.45 ± 0.11	1.96 ± 0.084	2.14 ± 0.078	2.75 ± 0.056
SAPIYVDIEYTRGRNII [RET1]	2.88 ± 0.064	2.42 ± 0.11	2.51 ± 0.12	2.86 ± 0.1
FINNVLSNPSNQNICTS [GRR1]	2.53 ± 0.054	2.42 ± 0.074	2.31 ± 0.033	2.47 ± 0.037
CRNINRKHRNAQFAGRA [DIS3]	2.18 ± 0.22	2.54 ± 0.11	2.78 ± 0.071	2.92 ± 0.086
DKFFNEVNKSELYLTAE [SIR3]	3.23 ± 0.085	3.43 ± 0.13	3.55 ± 0.13	3.58 ± 0.12
FLFHAISGREGLVDTAV [RPO31]			2.89 ± 0.28	2.55 ± 0.13
SASLKKIQQHNTILNSS [BRR2]	2.79 ± 0.032	2.65 ± 0.052	2.93 ± 0.055	2.81 ± 0.041
NKTDAQAPTTGFSFGSQ [YJL041W/NSP1]	3.28 ± 0.077	2.91 ± 0.064	2.98 ± 0.06	3.07 ± 0.069
ANVPSTATTGKRKPAKS [RPN4]	2.64 ± 0.05	2.64 ± 0.073	2.88 ± 0.082	2.8 ± 0.05
